Assays:
MS2 coat protein [1] = experiment: apparent KD of MS2 coat protein, switch OFF state (with FMN for OFF switches, without FMN for ON switches); designed switch direction (-1 OFF switch, 1 ON switch): 1; higher = weaker reporter binding; details: FMN input: 0 or 200 uM; Eterna round: R93 (includes R88 designs)
In short: (§1)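 Titrations with SNAP-549-labelled MS2 coat protein ran in twofold steps from 0.7 or 1.5 nM to 3 µM, each step taking 0.8–1.5 h at the start and 10–20 min toward the end. The targets were designed RNA switches transcribed on-chip from Illumina sequencing clusters, held in 100 mM Tris-HCl pH 7.5, 80 mM KCl, 4 mM MgCl2, without or with constant ligand. Apparent KD was taken per design as the median of normalised cluster binding-curve fits.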

MS2 coat protein [2] = experiment: apparent KD of MS2 coat protein, switch ON state; designed switch direction (-1 OFF switch, 1 ON switch): 1; higher = weaker reporter binding; details: FMN input: 0 or 200 uM; Eterna round: R93 (includes R88 designs)
In short: as §1

Sequence | apparent KD of MS2 coat protein (MS2 coat protein [1]) [nM] | apparent KD of MS2 coat protein (MS2 coat protein [2]) [nM]
AAAAAAUAAAAAAAGGAUAUAAUGCUACAGACAUGAGGAUCACCCAUGUAGGUAGCAUUAAUAAAAAAGAAGGAAAAAUAAAAAA [SS2: MS2 32] | 15.3 | 9.09
AACCAACAUGAGGAUCACCCAUGUCAACCCAAGGCAGGAUAUGCGAGAAUAACAAUGGGAGCAGAAGGGCCGACCU [ss1-3] | 53.4 | 40
AACCGCGCUAUACAGGAUAUCACAAUAUCGACAUGAGGAUCACCCAUGUGACUGGCACCAGUCGGUGAGAAGGGUGAAGUGCGGC [Tilemage] | 238 | 149
UUACGUACGUAUGAGGAUAUCCAUAAUAAGACAUGAGGAUCACCCAUGUAAACAAAACAAUAAUGGGAGAAGGCAUACGUACGAA [Mat - Same state - Malcolm Mod - D135] | 47.3 | 23.2
AAUAAUUAUAUCGAGGAUAUCGGUAAUAAGACAUGAGGAUCACCCAUGUAAUAAGGUUAAAUAAACGAGAAGGCGAAGGGUGAAA [JR_SS002_Sub006] | 49.2 | 80.9
AACAUACAUGAGGAUCACCCAUGUUCCGGCAGGGCAGGAUAUCCAUCGAAAGUGUUAUAAGGAGAAGGGCCAUAAA [JR_SS001_Sub013] | 93.3 | 31.7
AGGAAACAUGAGGAUCACCCAUGUAAAAAUAUGGGAGGAUAUACGAAGACGAAAGUAAAAGUAGAAGGCCUAAAAG [Garnet 15] | 108 | 31.8
AAAGACAUAGUUCAGGAUAUGGUAAUAGUCACAUGAGGAUCACCCAUGUUCUUUUAUAAGAACGAUCAGAAGGGAGGUAAAAAAA [SameState2 Malc#14] | 282 | 151
UCGUCCUCGUGCUAGGAUAUCCAUCGUAAAACAUGAGGAUCACCCAUGUAGAAAUGCGCCGACGAGGAGAAGGAGCGAUGUGGAU [Lazabima] | 18.5 | 14.5
AAAAUACAUGAGGAUCACCCAUGUGAAAAUAUGGAAGGAUAUCAUGGAAAAAAAAAAACAUGAGAAGGUCCAAAAA [SS! 1 MT 9] | 123 | 22
GACUAACAUGAGGAUCACCCAUGUAUUCAAACAUGAGGAUAUAUAACACAUCAUCGACGGAUAGAAGGCAUAGAUA [JR_SS001_Sub1207] | 71.7 | 81.1
AUGGUCAAGUGUGAGGAUAUCCAGGCUCCCACAUGAGGAUCACCCAUGUUUUAAAGAGCGUAAAGGGAGAAGGUACGAACGCCAC [Isorvere] | 21.9 | 15.4
UUAAAACAUGAGGAUCACCCAUGUAGAAAUAUGGGAGGAUAUACGAAGACGAAAGUCAAAGUAGAAGGCCUAAAUU [Mat - Same State 1 - Eli mod - D112] | 64.9 | 25.2
AACUAACAUGAGGAUCACCCAUGUUGCAGCGGUUGAGGAUAUGUGGGUGAAAAUAGCAUGGCAGAAGGCGAGUGUA [SameState1 Malc#25] | 52.2 | 68.8
AUAUAUAUAAGGUAGGAUAUCCUAAAGUAAACAUGAGGAUCACCCAUGUAAAGAAAGAAACUCAUGGAGAAGGACCAUAUAUAUA | 20.2 | 15.5
GGGUAAGAGAGAGAGGAUAUCCAAAGGAAAACAUGAGGAUCACCCAUGUAGAAGGUAGGAAAUUGGGAGAAGGCUCAAGAGAGAG [salish99-ss2-136] | 29.7 | 29.8
AUAAGACAUGAGGAUCACCCAUGUAUAAGAGCAUGAGGAUAUAUGAAAAGUAAUAGGAGAAUAGAAGGCAUAGUUG [JR_SS001_Sub1220] | 92.4 | 80.7
GGAAGGAAGAGAGAGGAUAUCCAAAGGAAAACAUGAGGAUCACCCAUGUAAAAGGUAGGAAAUUGGGAGAAGGCUCAAAAGAGAG [salish99-ss2-036] | 14 | 18.6
GGAAGACAUGAGGAUCACCCAUGUGGGAUUAUGGGAGGAUAUACAAAGACGAGAGUCAGAGUAGAAGGCCUAGGAC [salish99-ss1-123(!)] | 61.4 | 31.1
AGGAAACAUGAGGAUCACCCAUGUAAAAAAUAGGGAGGAUAUGGAAACACGAAAGUGAAACCAGAAGGCUCAAAAA [77%, Mat - Mod of Eli, 23] | 18.2 | 13.8

Sequence | apparent KD of MS2 coat protein (MS2 coat protein [1]) [nM] | apparent KD of MS2 coat protein (MS2 coat protein [2]) [nM]
CGAAGACAUGAGGAUCACCCAUGUGGGAAUAUGGGAGGAUAUACAAAGACGAGAGUCAGAGUAGAAGGCCUAGGAA [salish99-ss1-104] | 56.6 | 23.3
AAUAAACAUGAGGAUCACCCAUGUAAAUGGGUACAAGGAUAUGCGAAAAGAAACAAAGAAGCAGAAGGUGUAAAGA [Ex5 sub 2] | 432 | 347
AUAAUAUUAAGCAAGGAUAUACUAAAGUAAACAUGAGGAUCACCCAUGUGAAAAAAAAAACUCAUGUAGAAGGUGCAUAAAUAAA [moonwalk 11] | 50 | 23.9
GAAAAACAUGAGGAUCACCCAUGUAAGAUAAACACAGGAUAUGCGAAAAUAAACAAAGAAGCAGAAGGGUGAAGAA [Mat - Same State 1 - Tesla mod - 72] | 80.3 | 23
AUACUACAUGAGGAUCACCCAUGUUGAAAUAUGGAAGGAUAUACGUAGUAAAAUAACUACGUAGAAGGUCCAGAAA [SS1 MT 22] | 19.6 | 18.7
GAAAAACAUGAGGAUCACCCAUGUGAGAAUAUGGGAGGAUAUACGAGGACGAGAGUCAAGGUAGAAGGCCUAAAAG [Garnet 75] | 549 | 40.5
GGAGCCGGUACUGAGGAUAUUCAUAUUAAAACAUGAGGAUCACCCAUGUAGGCCAGAAGGCCUUGGGAGAAGGCAGACCAGCUCG [Atgexeedri] | 273 | 19.1
CGCGGGCCCGGGCAGGAUAUCCGGCCUCGGACAUGAGGAUCACCCAUGUGGCCGAAAGGCCGGUGGGAGAAGGGCCCGGGCCCGC | 23.1 | 20.5
AGGAGACAUGAGGAUCACCCAUGUGAGAAGAGGCGAGGAUAUCGAAAGAAAGAAGAGAAACGAGAAGGCGCGAGCU [salish99-SS1-024] | 29.6 | 24.4
AAAUAAAAGACUAAGGAUAUGUCGCAUGACACAUGAGGAUCACCCAUGUGGUAACACAGAGGGUGGCAGAAGGUAGUCAAAAAAC [Mod 1 of Pariah 6 (Round1) by Hyphema] | 446 | 45.8
AGGAGACAUGAGGAUCACCCAUGUGAGAAGAGGCGAGGAUAUCGAAAGAAAGAAGAGAAACGAGAAGGCGCGAGGU [salish99-SS1-023] | 36.7 | 23.6
GUGGACAUAGUUCAGGAUAUAUGAAUAGUCACAUGAGGAUCACCCAUGUCCAUUUAUAUGGGCACAUAGAAGGGAGGUAGUUAAC [Mat - Same state - Malcolm Mod - D124] | 744 | 451
AAGAUACAUGAGGAUCACCCAUGUCGAGAGAGACGAGGAUAUCUGAAUCGAUUAGAUUACGGAGAAGGCGUGAAAA [LROPPY Same State 1 - v07_deltaG=1.9] | 34.3 | 19.4
GAAAAACAUGAGGAUCACCCAUGUAGAAAUAUGGGAGGAUAUACAAAGACGAAAGUCAAAGUAGAAGGCCUAAAAG [Mat - Same State 1 - Rerun of Eli mod - D1] | 69.3 | 23.9
AAAAUAUAAAGAGAGGAUAUCCAAAGAACCACAUGAGGAUCACCCAUGUAAAGAAAGAAUAAGUGGGAGAAGGCUCAAAUAAUAA [Designing denovo 24] | 99.8 | 27.5
GAAAAACAUGAGGAUCACCCAUGUAGAAAAAUGGGAGGAUAUACAAAGACGAAAGUCAAAGUAGAAGGCCUGAAAG [same state 77% mat/eli mod] | 74.4 | 24.8
CGUCUACAUGAGGAUCACCCAUGUCAAGAGUGGUCAGGAUAUGGUAUUAGAUGAGUAUGGCCAGAAGGGACAUAAG [JR_SS001_Sub715] | 386 | 167
AGGAAACAUGAGGAUCACCCAUGUAAAAAUAUGGGAGGAUAUACAAACAAGAAAGUCAGAGUAGAAGGCCUAAAAG [Garnet 7] | 145 | 73.7
GAAAAACAUGAGGAUCACCCAUGUAGAAAUAUGGGAGGAUAUACAAAGACGAAAGUCAAAGUAGAAGGCCUAAAAG [Mat - Mod of Eli] | 69.3 | 23.9

Reference: the supplement of paper PMC9170038
